Columns and labels:
[1] = biological target: T1, Recombinant human CTLA-4-his (Sino Biologicals, 11159-H08H) (human, UniProt P16410 36-162); experiment: ELISA, plate coated with non-reduced CTLA-4-his (dimer), anti-human-HRP, OD450; the box beside the curves does not name the quantity, the value lies at the half-maximal point of the curve (OD450 0.2 to 1.4)
T1 construct: Bought protein; also called dimer hCTLA-4; not shown: his tag
Procedure: (§1) hCTLA-4 can exist in monomer and dimer forms on the cell surface. […] The recombinant protein was incubated for 10 minutes with 100 mM DTT to reduce the protein to its monomeric form. […] The plates were coated overnight at 4° C., followed by a wash step and blocking with 20% milk for 1 hour at 37° C. […] The plate was washed and a secondary anti-human-HRP antibody (Jackson) was added at a 1:5000 dilution. A TMB solution was added, followed by stop solution and the OD at 450 nm was measured. Data was analyzed with Prism software.

[2] = biological target: T2, human CTLA-4 expressed on cells (human, UniProt P16410 36-223); experiment: flow cytometry on HEK293-hCTLA-4 cells, reference tremelimumab
T2 construct: whole, on cells; On stably or transiently transfected HEK293 cells; also called hCTLA-4; HEK293-hCTLA-4 cells
T2 sequence (P16410 36-223): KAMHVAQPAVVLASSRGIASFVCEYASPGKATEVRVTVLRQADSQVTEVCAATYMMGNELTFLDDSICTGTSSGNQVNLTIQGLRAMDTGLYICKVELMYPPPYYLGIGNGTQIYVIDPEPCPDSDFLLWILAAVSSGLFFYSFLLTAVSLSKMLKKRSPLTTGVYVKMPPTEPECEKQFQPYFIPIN
Procedure: To test the binding of antibodies to CTLA-4 under more physiological conditions, the binding of CTLA-4 antibodies to cell-surface CTLA-4 was tested. […] The surface expression of hCTLA-4 in the obtained cell line was tested using a commercial anti-CTLA-4 antibody and compared to the parent cell line (HEK293 without transfection). […] The anti-CTLA-4 antibodies were incubated in serial dilution concentrations with the HEK293-hCTLA-4 cells for 1 hour on ice. Following a wash step, an anti-human antibody conjugated to ALEXA FLUOR® 647® was added for an additional hour. The cells were washed, and propidium iodide (PI) was added to exclude dead cells. The fluorescent signal was measured using FACS and analyzed. Dead cells were removed based on the PI signal. The population was gated based on forward and side scatter (FSC and SSC) parameters, and doublets were removed. The Median Fluorescent Intensity (MFI) of the appropriate channel was calculated for the live single cells from each group. The MFI was plotted versus antibody concentration in Prism software (V6.01) and kinetic parameters were obtained using a curve fit dose response function with four parameters. […] The lower EC₅₀ values indicate increased binding affinity to cell surface hCTLA-4.

[3] = biological target: T3, Macaque (Macaca fascicularis) CTLA-4 on HEK293 cells (Macaca fascicularis, UniProt G7PL88 36-223); experiment: flow cytometry on HEK293 cells transiently expressing macaque CTLA-4, reference ipilimumab
T3 construct: whole, on cells; also called macaque CTLA-4
T3 sequence (G7PL88 entry or part of it): as the sequence (P16410 36-223) above, with S14N, I18T, L106M counted along it
Procedure: (§2) Macaque (Macaca fascicularis), pig (Sus scrofa) and mouse (Mus musculus) CTLA-4 proteins were transiently expressed on the surface of HEK293 cells. […] Binding was measured using FACS and analyzed.

[4] = biological target: T2, human CTLA-4 expressed on cells; experiment: flow cytometry, inhibition of CD80-mFC binding to HEK293-hCTLA-4 cells
Procedure: (§3) As part of their activity, CTLA-4 therapeutic antibodies block the interaction between CTLA-4 and its ligands, leaving the ligands free for CD28 binding. […] First, HEK293-hCTLA-4 cells were incubated with the tested antibodies in a serial dilution for 30 minutes. […] The fluorescence was measured and analyzed. The experiment was performed in triplicate and is representative of three biological repeats.

[5] = biological target: T1, Recombinant human CTLA-4-his (Sino …); experiment: SPR (Biacore T100), antibody captured on anti-human chip, CTLA-4-his in solution
Procedure: (§4) Recombinant human CTLA-4-his (Sino Biologicals, 11159-H08H) was added in a serial 2-fold dilution, starting at a concentration of 500nM. […] The measurement was corrected using the baseline channel and the protein-antibody interaction was measured by the change in surface resonance and quantified with Biacore T100 control software (version 2.0.4).

[6] = biological target: T2, human CTLA-4 expressed on cells; experiment: flow cytometry, inhibition of CD86-mFC binding to HEK293-hCTLA-4 cells, reference ipilimumab
Procedure: as §3

[7] = biological target: T2, human CTLA-4 expressed on cells; experiment: flow cytometry, inhibition of CD86-mFC binding to HEK293-hCTLA-4 cells, reference tremelimumab
Procedure: as §3

[8] = biological target: T2, human CTLA-4 expressed on cells; experiment: flow cytometry, inhibition of CD80-mFC binding to HEK293-hCTLA-4 cells, reference ipilimumab
Procedure: as §3

[9] = biological target: non-recycling version of CTLA-4 on CTLA-4 effector cells (Promega CS186920) (human, UniProt P16410 36-223); experiment: cell-based or functional assay
Chain of non-recycling version of CTLA-4 on CTLA-4 effector cells (Promega CS186920) (P16410 36-223): as the sequence (P16410 36-223) above

[10] = biological target: T4, CTLA-4-his reduced with 100 mM DTT to its monomeric form (human, UniProt P16410 36-162); experiment: ELISA, plate coated with DTT-reduced CTLA-4-his (monomer), anti-human-HRP, OD450; the box beside the curves does not name the quantity, the value lies at the half-maximal point of the curve (OD450 0.2 to 1.4)
T4 construct: Same bought protein as the dimer, reduced with DTT before coating; also called monomer hCTLA-4; not shown: his tag
T4 sequence (P16410 36-162 limits assumed): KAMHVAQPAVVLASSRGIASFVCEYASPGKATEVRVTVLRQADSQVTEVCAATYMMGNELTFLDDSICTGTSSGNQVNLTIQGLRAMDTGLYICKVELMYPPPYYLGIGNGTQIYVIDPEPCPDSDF
Procedure: as §1

[11] = biological target: T3, Macaque (Macaca fascicularis) CTLA-4 on …; experiment: flow cytometry on HEK293 cells transiently expressing macaque CTLA-4
Procedure: as §2

[12] = biological target: T5, Pig (Sus scrofa) CTLA-4 on HEK293 cells (Sus scrofa, UniProt Q9MYX7 36-223); experiment: flow cytometry on HEK293 cells transiently expressing pig CTLA-4, reference ipilimumab
T5 construct: whole, on cells; also called pig CTLA-4
T5 sequence (Q9MYX7 36-223): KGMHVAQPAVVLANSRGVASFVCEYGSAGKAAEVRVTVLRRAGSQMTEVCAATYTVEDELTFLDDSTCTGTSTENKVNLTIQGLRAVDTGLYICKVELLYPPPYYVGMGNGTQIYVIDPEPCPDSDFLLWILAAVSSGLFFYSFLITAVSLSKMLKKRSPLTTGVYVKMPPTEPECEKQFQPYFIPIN
Procedure: as §2

[13] = biological target: T1, Recombinant human CTLA-4-his (Sino …); experiment: SPR (Biacore T100), reference ipilimumab
Procedure: as §4

[14] = biological target: T3, Macaque (Macaca fascicularis) CTLA-4 on …; experiment: flow cytometry on HEK293 cells transiently expressing macaque CTLA-4, reference tremelimumab
Procedure: as §2

T1 sequence (P16410 36-162 limits assumed): as the sequence (P16410 36-162 limits assumed) above

- EC50 [1]: 0.008 nM
- Ratio Tremelimumab:Ab55h of EC50 [2]: 7.5 fold
- Ratio Ipilimumab:Ab55h of EC50 [3]: 2.6 fold
- IC50 [4]: 1.6 nM
- Kd [5]: 0.86 nM
- koff [5]: 0.0006 s⁻¹
- Ratio Ipilimumab:Ab55h of IC50 [6]: 2.2 fold
- Ratio Tremelimumab:Ab55h of IC50 [7]: 2.8 fold
- Ratio Ipilimumab:Ab55h of IC50 [8]: 3 fold
- NFAT reporter EC50 [9]: 0.63 nM
- NFAT reporter EC50, Ratio Ipilimumab:Ab55h [9]: 3.65 fold
- EC50 [10]: 0.002 nM
- EC50 [11]: 0.3 nM
- Ratio Ipilimumab:Ab55h of EC50 [12]: 5590 fold
- Ratio Ipilimumab:Ab55h of Kd [13]: 8.1 fold
- Ratio Ipilimumab:Ab55h of Koff [13]: 1.3 fold
- Ratio Ipilimumab:Ab55h of Kon [13]: 0.16 fold
- Ratio Tremelimumab:Ab55h of EC50 [14]: 1.7 fold
B1: Ab55h (antibody, V domains shown)
VH: QVQLQESGPGLVKPSETLSLTCAVSGYSISGDYYWGWIRQPPGKGLEWIGSIYHSGYTYYNPSLKSRVTISVDTSKNQFSLKLSSVTAADTAVYYCARDSGWYVIAFDYWGQGTLVTVSS
VL: EIVMTQSPATLSVSPGERATLSCRASQSVSSNLAWYQEKPGQAPRLLIYGASTRATGIPARFSGSGSGTEFTLTISSLQSEDFAVYYCQQYNNWPPLTFGGGTKVEIK
notes: Human form, compared with an hIgG1 isotype control
